Test results reported in PMC9293779, “Elucidation of binding preferences of YEATS domains to site-specific acetylated nucleosome core particles” (The Journal of Biological Chemistry, 2022).
One block for each binder: values may come before it. Ends that are not written are not given here.

What was measured:
Conditions in all cases: both partners purified
[1] = biological target: T1, AF9-YEATS domain (residues 1–138) for X-ray analysis and ITC (human, UniProt P42568 1-138); assay: crystal structure; sitting-drop vapor diffusion at 20 °C; AF9-YEATS with diacetylated H4 peptide; space group P1, two AF9-YEATS molecules in the asymmetric unit
T1 construct: AF9 YEATS domain, human, residues 1–138; cloned in the pCR2.1 vector encoding GST and the polyhistidine tag; source: purified (HisTrap HP, Superdex 200)
T1 sequence (looked up): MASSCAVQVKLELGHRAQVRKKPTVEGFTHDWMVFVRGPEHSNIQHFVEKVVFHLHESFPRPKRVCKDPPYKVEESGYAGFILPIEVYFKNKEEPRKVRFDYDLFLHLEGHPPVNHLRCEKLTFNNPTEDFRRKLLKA

[2] = biological target: T1, AF9-YEATS domain (residues 1–138) for …; assay: ITC; protein (100 μM) in the cell, peptide (1 mM) in the syringe; 15 °C; 20 mM Tris-HCl pH 7.6, 500 mM NaCl; single binding site model
[3] = biological target: T2, GST-fused AF9-YEATS domain (peptide array) (human, UniProt P42568 1-138); assay: peptide or protein array; MODified Histone Peptide Array (Active Motif); 10 μM GST-fused YEATS domain, 4 °C overnight; 50 mM Tris-HCl pH 7.6, 250 mM NaCl, 0.1% NP-40, 10% glycerol; detected with anti-GST
T2 construct: GST follows the N-terminal polyhistidine tag; source: purified (HisTrap HP, Superdex 200); not shown: GST, N-terminal, kept
T2 sequence (looked up): T1 sequence (looked up)

[4] = biological target: T3, GST-fused ENL-YEATS domain (peptide array) (human, UniProt Q03111 1-138); assay: as above
T3 construct: GST follows the N-terminal polyhistidine tag; source: purified (HisTrap HP, Superdex 200); not shown: GST, N-terminal, kept
T3 sequence (looked up): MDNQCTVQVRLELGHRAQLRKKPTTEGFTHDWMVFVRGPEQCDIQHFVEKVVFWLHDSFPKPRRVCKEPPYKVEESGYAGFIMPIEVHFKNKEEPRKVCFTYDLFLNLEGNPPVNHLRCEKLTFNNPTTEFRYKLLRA

B1: H4 (1–12) K5ac/K8ac peptide (peptide, UniProt P62805 2-13, looked up)
peptide: SGRGK(Ac)GGK(Ac)GLGK
notes: histone H4, residues 1–12; also called H4K5ac/K8ac peptide; K5/K8-diacetylated H4 peptide
binding result [1]: binds

Binder: ARTKQTARKSTGGKAPRKQ (peptide, UniProt P68431 2-20, looked up, acetyl-lysine at K9 and K14, histone H3, residues 1–19) [K9/K14-diacetylated H3 (1–19) peptide]
Kd [2]: 8.5 µM

Binder: ARTK(Ac)QTARK(Ac)STGGKAPRKQ (peptide, UniProt P68431 2-20, looked up, histone H3, residues 1–19) [K4/K9-diacetylated H3 (1–19) peptide]
Kd [2]: 5.8 µM

Now from value to binder:

binding result [3]: binds | binding result [4]: binds
B2: H4 (1–19) tail peptide tetra-acetylated at K5/K8/K12/K16 (MODified Histone Peptide Array) (peptide, UniProt P62805 2-20, looked up)
peptide: SGRGKGGKGLGKGGAKRHR
modifications: acetyl-lysine at K5, K8, K12 and K16
notes: histone H4, residues 1–19; source: bought: Active Motif MODified Histone Peptide Array

binding result [3]: binds | binding result [4]: binds
B3: H4 (1–19) tail peptide diacetylated at K5/K8 (MODified Histone Peptide Array) (peptide, UniProt P62805 2-20, looked up)
peptide: SGRGKGGKGLGKGGAKRHR
modifications: acetyl-lysine at K5 and K8
notes: as for B2

binding result [1]: binds
B4: H4 (4–16) K8ac/K12ac peptide (peptide, UniProt P62805 5-17, looked up)
peptide: GKGGK(Ac)GLGK(Ac)GGAK
notes: histone H4, residues 4–16; also called H4K8ac/K12ac peptide; K8/K12-diacetylated H4 peptide
